Measured values as given in patent publication US20260217835A1.

Molecular target: GCH065-G1T6v2/L0011-kT0
Assay: CIEX peak area ratio; coexpression from mRNAs (heavy 1/light/heavy 2 = 1/4/1) in Expi293 cells

GCH065-G1T6v2/L0011-kT0, sequence (heavy, as listed by the source): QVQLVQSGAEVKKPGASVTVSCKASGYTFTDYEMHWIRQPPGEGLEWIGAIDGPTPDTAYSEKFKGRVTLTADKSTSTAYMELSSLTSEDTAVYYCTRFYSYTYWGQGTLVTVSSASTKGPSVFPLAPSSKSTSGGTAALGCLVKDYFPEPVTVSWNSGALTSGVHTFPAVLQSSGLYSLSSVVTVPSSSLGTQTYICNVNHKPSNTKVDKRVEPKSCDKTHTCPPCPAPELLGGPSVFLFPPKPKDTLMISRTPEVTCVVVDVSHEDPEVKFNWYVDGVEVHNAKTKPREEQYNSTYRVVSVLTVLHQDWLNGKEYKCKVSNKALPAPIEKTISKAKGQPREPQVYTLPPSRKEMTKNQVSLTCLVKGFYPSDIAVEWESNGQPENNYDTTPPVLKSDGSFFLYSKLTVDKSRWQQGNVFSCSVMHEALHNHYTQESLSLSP

Heavy chain heteromultimer (TG, T1G2, QJ, Q3J4) (%): 2.07%
B1: TR01H113-G1T6/L0011-kT0 (antibody, human IgG1, kappa, V domains shown)
VH: QVQLVESGGGVVQPGGSLRLSCAASGFTFSNAWMHWVRQAPGKGLEWVAQIKDKSQNYATYVAESVKGRFTISRADSKNSIYLQMNSLKTEDTAVYYCRYVHYAAGYGVDIWGQGTTVTVSS
VL: DIVMTQSPLSLPVTPGEPASISCRSSQPLVHSNRNTYLHWYQQKPGQAPRLLIYKVSNRFSGVPDRFSGSGSGTDFTLKISRVEAEDVGVYYCGQGTQVPYTFGQGTKLEIKR
